As a reminder, the kon is a measure of how fast the partners come together.

Positions count from the first letter of the chain named.

Binding result and kon data for five molecules are collected here from publication PMC5267525, “Sec3 promotes the initial binary t-SNARE complex assembly and membrane fusion” (Nature Communications, 2017).

T1: GST-Sec3N (Sec3 N-terminus, a.a. 1–320) (yeast, UniProt P33332 1-320)
T1 construct: Sec3, yeast exocyst subunit, N-terminus a.a; 1-320; also called pG1860; source: E. coli BL21(DE3), purified (Glutathione Sepharose 4B)
T1 sequence (looked up): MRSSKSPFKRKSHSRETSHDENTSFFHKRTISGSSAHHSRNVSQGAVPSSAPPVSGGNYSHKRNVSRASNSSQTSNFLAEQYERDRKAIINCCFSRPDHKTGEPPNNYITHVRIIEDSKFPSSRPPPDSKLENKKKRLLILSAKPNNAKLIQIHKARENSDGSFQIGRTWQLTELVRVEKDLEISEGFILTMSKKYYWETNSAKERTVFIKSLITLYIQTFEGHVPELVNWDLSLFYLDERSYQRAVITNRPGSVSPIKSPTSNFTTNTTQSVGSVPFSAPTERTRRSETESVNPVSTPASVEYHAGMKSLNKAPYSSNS

T2: His6-Sso2-mutHL2 (a.a. 1–270, 170DVNGQ174 to 170GSSGG174) (yeast, UniProt P39926 1-270, 170DVNGQ174 to 170GSSGG174)
T2 construct: Sso2, yeast t-SNARE, cytosolic domain a.a; 1-270, mutated directly from pG707; also called pG1971
T2 sequence (looked up): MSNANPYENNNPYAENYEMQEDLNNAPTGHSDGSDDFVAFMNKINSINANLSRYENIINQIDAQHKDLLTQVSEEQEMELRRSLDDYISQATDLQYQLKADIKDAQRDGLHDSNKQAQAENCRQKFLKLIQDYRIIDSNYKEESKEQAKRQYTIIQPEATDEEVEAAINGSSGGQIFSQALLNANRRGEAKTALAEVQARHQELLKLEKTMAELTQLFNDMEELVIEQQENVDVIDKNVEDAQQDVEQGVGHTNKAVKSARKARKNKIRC

T3: Sso2 (a.a. 1–270), as used in size-exclusion chromatography (yeast, UniProt P39926 1-270)
T3 construct: Sso2, yeast t-SNARE, a.a; The text says that this complex was later used for crystallization, for which the methods give Sso2 a.a; 36-227 with the His6 tag cleaved; the legend's limits are kept
T3 sequence (looked up): T2 sequence (looked up) with G170D, S171V, S172N, G174Q

B1: Sso2 reconstituted in liposomes (natural protein, yeast, UniProt P39926 1-295, looked up)
chain: MSNANPYENNNPYAENYEMQEDLNNAPTGHSDGSDDFVAFMNKINSINANLSRYENIINQIDAQHKDLLTQVSEEQEMELRRSLDDYISQATDLQYQLKADIKDAQRDGLHDSNKQAQAENCRQKFLKLIQDYRIIDSNYKEESKEQAKRQYTIIQPEATDEEVEAAINDVNGQQIFSQALLNANRRGEAKTALAEVQARHQELLKLEKTMAELTQLFNDMEELVIEQQENVDVIDKNVEDAQQDVEQGVGHTNKAVKSARKARKNKIRCLIICFIIFAIVVVVVVVPSVVETRK
notes: Sso2, yeast t-SNARE, called the full-length Sso2 in the fusion assays; also called Sso2 liposomes; t-SNARE liposomes reconstituted with Sso2; source: reconstituted in POPC/DOPS liposomes
B2: His6-Sso2 (cytosolic domain, a.a. 1–270) (domain or fragment, yeast, UniProt P39926 1-270, looked up)
chain: T2 sequence (looked up) with G170D, S171V, S172N, G174Q
notes: Sso2, yeast t-SNARE, cytosolic domain a.a; 1-270; also called pG707
B3: GST-tagged Sec9 C-terminal SNARE domain (a.a. 414–651) (domain or fragment, yeast, UniProt P40357 414-651, looked up)
chain: EEARQQQEEDEAVDEIKQEIKFTKQSSVASTRNTLKMAQDAERAGMNTLGMLGHQSEQLNNVEGNLDLMKVQNKVADEKVAELKKLNRSILAVHVSNPFNSKRRRREREEQLKNRKIEEKLMREQTSQQLSQSTQRIEGAMNANNNISEVRERYQRKNVLEKAKRYQFENDEEDDEMELEIDRNLDQIQQVSNRLKKMALTTGKELDSQQKRLNNIEESTDDLDINLHMNTNRLAGIR
notes: Sec9, yeast t-SNARE (SNAP-23 homologue), C-terminal SNARE domain a.a; 414-651; also called GST-Sec9C; pG1067; source: E. coli BL21(DE3), purified (Glutathione Sepharose 4B)
B4: Sec3 N-terminal domain (a.a. 75–320) (domain or fragment, yeast, UniProt P33332 75-320, looked up)
chain: SNFLAEQYERDRKAIINCCFSRPDHKTGEPPNNYITHVRIIEDSKFPSSRPPPDSKLENKKKRLLILSAKPNNAKLIQIHKARENSDGSFQIGRTWQLTELVRVEKDLEISEGFILTMSKKYYWETNSAKERTVFIKSLITLYIQTFEGHVPELVNWDLSLFYLDERSYQRAVITNRPGSVSPIKSPTSNFTTNTTQSVGSVPFSAPTERTRRSETESVNPVSTPASVEYHAGMKSLNKAPYSSNS
notes: Sec3, yeast exocyst subunit, N-terminal domain a.a; 75-320 (contains the PH domain); Cloned in the custom vector MalpET; tag cut off by tobacco etch virus protease; also called Sec3(a.a. 75–320); source: E. coli BL21(DE3), purified (Ni-HiTrap, HiTrap-Q HP, Superdex-200); not shown: MBP-His10, N-terminal, cleaved
B5: Sso2 Habc and SNARE motif (a.a. 36–227) (domain or fragment, yeast, UniProt P39926 36-227, looked up)
chain: DFVAFMNKINSINANLSRYENIINQIDAQHKDLLTQVSEEQEMELRRSLDDYISQATDLQYQLKADIKDAQRDGLHDSNKQAQAENCRQKFLKLIQDYRIIDSNYKEESKEQAKRQYTIIQPEATDEEVEAAINDVNGQQIFSQALLNANRRGEAKTALAEVQARHQELLKLEKTMAELTQLFNDMEELVIE
notes: Sso2, yeast t-SNARE, Habc and the SNARE motif, a.a; 36-227; Cloned in pET15b; tag removed by thrombin; also called Sso2 (a.a. 36–227); source: E. coli BL21(DE3), purified (Ni-HiTrap, HiTrap-Q HP, Superdex-200); not shown: His6, N-terminal, cleaved

What all share (conditions): both partners purified
For experiment [1], the target named is T1, GST-Sec3N (Sec3 N-terminus, a.a. 1–320). Nature of the experiment: co-sedimentation; liposomes containing Sso2 incubated with Sec9C in the presence or absence of Sec3N at 25 °C for 30 min; liposomes collected by sedimentation; SDS-PAGE, Coomassie blue; Sso2-free liposomes as control.
For experiment [2] the target is unchanged. In words: pull-down; GST-Sec3N on glutathione Sepharose with His6-Sso2 or His6-Sec9C, or with both in three orders of addition (simultaneous; Sec3N and Sso2 pre-incubated 30 min; Sso2 and Sec9C pre-incubated 2 h); 5 μg His6-Sec9C; Coomassie blue.
Experiment [3] concerns the target B2. Nature of the experiment: pull-down; time course: His6-Sso2 (2 μM) alone added to GST-Sec9C (20 μg) on glutathione Sepharose 4B, 100 μl, 25 °C; bound Sso2 quantified from Coomassie gels; apparent rate constant from a second-order fit.
Experiment [4] concerns the target T2, His6-Sso2-mutHL2 (a.a. 1–270, …). The description is as above.
Experiment [5] concerns the target B2. In words: pull-down; time course as a6, but His6-Sso2 (2 μM) pre-incubated with His6-Sec3N (2 μM) for 30 min at 25 °C before GST-Sec9C (20 μg) on glutathione Sepharose 4B; apparent rate constant from a second-order fit.
Experiment [6] deals with T3, Sso2 (a.a. 1–270), as used in …. Nature of the experiment: SEC; Superdex-200 16/60 column; proteins applied individually or in mixture, Sso2 with excess Sec3N.
Experiment [7] has as its target B4. In words: crystal structure; crystal form 1, space group C222(1); 0.1 M HEPES pH 7.0, 0.2 M NaCl, 25% PEG 3350; 2.20 Å.

B1: the binding result in experiment [1] is listed as “binds”.

As for B2, the binding result in experiment [2] is “binds”.

With B3, the kon came to 15.2 ± 0.6 M⁻¹ s⁻¹ in experiment [3] and 200 ± 90 M⁻¹ s⁻¹ in experiment [5]. The binding result in experiment [4] is on record as “binds”.

As to B4, the binding result in experiment [6] was “binds”.

Consider B5, for which the binding result in experiment [7] was “binds”.
